The test has as its target recombinant human CD30L protein (human) (UniProt P32971). In words: ELISA.

This is an account of results in patent publication US20260209372A1.

recombinant human CD30L protein (human), sequence (P32971 63-234 limits assumed): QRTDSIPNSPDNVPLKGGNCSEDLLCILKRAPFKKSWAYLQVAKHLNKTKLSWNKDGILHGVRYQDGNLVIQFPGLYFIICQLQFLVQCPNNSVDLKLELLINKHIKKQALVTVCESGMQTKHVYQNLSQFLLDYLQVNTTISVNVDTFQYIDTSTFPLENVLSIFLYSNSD

B1: Clone 59 (antibody, V domains shown)
VH: QVQLVESGGGVVQPGRSLRLSCAASGFTFSIYGMHWVRQAPGKGLEWVAVIWYDGSNKYYVDSVKGRFTISRDNSKNSLYLQMNSLRAEDTAVYYCAREGNLFDYWGQGTLVTVSS
VL: DIQMTQSPSTLSASVGDRVTITCRASQSISSWLAWYQQKPGKAPKLLIYKASSLESGVPSRFSGSGSGTEFTLTISSLKPDDFATYYCQQYKSYYTFGQGTKLEIK
B1: the OD is 0.06 OD.
